{
  "source": "patent US20090098175A1",
  "about": "(AFFINERGY, published 2009)",
  "binders": {"B1": {"name": "780P (peptide)", "chain 1": "SWWGFWNGSAAPVWSR", "chain 2": "SSGGVGGWALFETLRGKEVSR", "chain 3": "GSSGK(Biotin)", "modifications": "not fully specified (some residues, C-terminus); also: chains 1-3 joined as one linear peptide (67-GSSG-2-GSSGK)"}, "B2": {"name": "SEQ ID NO 2 (peptide)", "peptide": "SSGGVGGWALFETLRGKEVSR", "modifications": "not fully specified (residues 1, 2, 20, 21); printed as ssGGVGGWALFETLRGKEVsr; also: biotinylated, site not given here"}},
  "key": {"GDF-7 [1]": {"molecular_target": "T1, GDF-7 (UniProt Q7Z4P5 322-450)", "T1 chain": "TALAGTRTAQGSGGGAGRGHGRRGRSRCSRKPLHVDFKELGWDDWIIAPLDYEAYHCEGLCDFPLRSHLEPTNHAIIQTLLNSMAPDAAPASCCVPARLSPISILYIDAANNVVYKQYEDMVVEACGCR", "experiment": "GDF-7 capture on sutures"}, "PDGF-BB": {"molecular_target": "T2, PDGF-BB (UniProt P01127 82-190)", "T2 construct": "also called platelet-derived growth factor", "T2 sequence (P01127 82-190 limits assumed)": "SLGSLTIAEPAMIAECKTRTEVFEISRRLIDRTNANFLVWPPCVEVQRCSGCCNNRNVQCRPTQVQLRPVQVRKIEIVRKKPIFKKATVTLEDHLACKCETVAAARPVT", "experiment": "plate assay: biotinylated peptide on streptavidin plate, growth factor titrated, antibody/AP detection", "procedure": "(§1) Briefly, peptides comprising an amino acid sequence of each of SEQ ID NOs: 1-3 were biotinylated to facilitate immobilization on streptavidin-coated 96-well plates. The microtiter plates were coated with streptavidin by adding 50 μl of a 10 μg/ml streptavidin solution in 0.1 M NaHCO₃, and incubating the plates for at least 3 hours. The plate wells were blocked by adding 150 μl of a 1% BSA solution in 0.1 NaHCO₃, and the plates were stored at 4° C. until needed. Before use, the streptavidin plates were washed extensively in buffer-T. Peptides were then added at 20 pmol per well in 100 μl of high-salt buffer-T (containing 500 mM NaCl), and then incubated for 1 hour at room temperature with shaking. 150 μl of 0.5 mM biotin in H₂O was added to block the remaining streptavidin sites, and plates were incubated for an additional hour. Plates were then washed with TBS-T to remove the excess biotin and peptide. Serial dilutions of growth factor (including fibrous connective tissue-inducing growth factors GDF-7, GDF-5, BMP-2, and BMP-6,; and growth factors other than fibrous connective tissue-inducing growth factors, such as BMP-5, TGF-β, TGF-β3, or PDGF-BB) in high-salt buffer-T were added (100 μl) to each well, representing a range of concentrations between 0.01 nM and 100 nM. Plates were incubated for 1 hour at room temperature with shaking prior to washing several times with TBS-T. Growth factors were then detected using 100 μl of the appropriate dilutions of primary antibodies specific for the growth factor being detected. After washing with buffer-T, 100 μl of alkaline phosphatase-conjugated secondary antibody was added to each well and incubated at room temperature for 45 minutes. Excess secondary antibody was removed by repeated washes with buffer-T, and the amount of alkaline phosphatase remaining in the well was detected using a pNPP (para-nitrophenylphos-phate) colorimetric enzymatic assay. The amount of growth factor captured by the peptides was determined by measuring the absorbance at 405 nm of the colored product of the alkaline phosphatase reaction."}, "TGF-β3": {"molecular_target": "T3, TGF-β3 (UniProt P10600 301-412)", "T3 sequence (looked up)": "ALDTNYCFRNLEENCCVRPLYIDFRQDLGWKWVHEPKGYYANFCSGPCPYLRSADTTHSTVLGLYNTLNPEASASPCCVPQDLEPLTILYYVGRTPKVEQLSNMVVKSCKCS", "experiment": "plate assay: biotinylated peptide on streptavidin plate, growth factor titrated, antibody/AP detection", "procedure": "as §1"}, "TGF-β1": {"molecular_target": "TGF-β1 (UniProt P01137 279-390)", "sequence (P01137 279-390 limits assumed)": "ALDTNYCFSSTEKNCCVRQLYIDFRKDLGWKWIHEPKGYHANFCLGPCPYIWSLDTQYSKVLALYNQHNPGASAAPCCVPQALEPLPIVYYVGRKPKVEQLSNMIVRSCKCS", "experiment": "plate assay: biotinylated peptide on streptavidin plate, growth factor titrated, antibody/AP detection", "procedure": "as §1"}, "GDF-7 [2]": {"molecular_target": "T4, GDF-7 (UniProt Q7Z4P5 322-450, limits assumed)", "T4 construct": "also called BMP-12; growth and differentiation factor 7", "T4 sequence (looked up)": "T1 chain", "experiment": "plate assay: biotinylated peptide on streptavidin plate, growth factor titrated 0.01-100 nM, antibody/AP detection", "procedure": "as §1"}, "BMP-5": {"molecular_target": "T5, BMP-5 (UniProt P22003 317-454, limits assumed)", "T5 construct": "also called bone morphogenetic protein 5", "T5 sequence (looked up)": "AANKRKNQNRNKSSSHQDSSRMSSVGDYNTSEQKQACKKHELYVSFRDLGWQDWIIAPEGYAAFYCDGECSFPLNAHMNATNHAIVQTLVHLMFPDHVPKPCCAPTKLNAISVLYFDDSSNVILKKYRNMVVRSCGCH", "experiment": "plate assay: biotinylated peptide on streptavidin plate, growth factor titrated 0.01-100 nM, antibody/AP detection", "procedure": "as §1"}, "BMP-2": {"molecular_target": "T6, BMP-2 (UniProt P12643 283-396)", "T6 construct": "also called bone morphogenetic protein 2", "T6 sequence (P12643 283-396 limits assumed)": "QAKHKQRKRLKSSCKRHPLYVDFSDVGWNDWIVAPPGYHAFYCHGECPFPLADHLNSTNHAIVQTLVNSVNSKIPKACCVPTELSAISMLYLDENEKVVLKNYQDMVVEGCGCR", "experiment": "plate assay: biotinylated peptide on streptavidin plate, growth factor titrated 0.01-100 nM, antibody/AP detection", "procedure": "as §1"}, "BMP-6": {"molecular_target": "T7, BMP-6 (UniProt P22004 382-513, limits assumed)", "T7 construct": "also called bone morphogenetic protein 6", "T7 sequence (looked up)": "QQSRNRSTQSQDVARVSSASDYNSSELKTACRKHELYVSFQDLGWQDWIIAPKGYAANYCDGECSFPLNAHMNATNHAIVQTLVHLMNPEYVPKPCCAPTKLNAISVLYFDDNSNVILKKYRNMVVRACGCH", "experiment": "plate assay: biotinylated peptide on streptavidin plate, growth factor titrated 0.01-100 nM, antibody/AP detection", "procedure": "as §1"}, "GDF-5": {"molecular_target": "T8, GDF-5 (UniProt P43026 382-501)", "T8 construct": "also called BMP-14", "T8 sequence (looked up)": "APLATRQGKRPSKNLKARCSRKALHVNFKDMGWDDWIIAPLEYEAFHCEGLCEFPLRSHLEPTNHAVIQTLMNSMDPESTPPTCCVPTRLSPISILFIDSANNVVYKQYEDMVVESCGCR", "experiment": "plate assay: biotinylated peptide on streptavidin plate, growth factor titrated 0.01-100 nM, antibody/AP detection", "procedure": "as §1"}},
  "note": "Where no end group is shown, it is not given here. [ ]: non-standard residue; d: D form. The star is where a group is joined. Biotin = O=C1N[C@H]2[C@H](CS[C@H]2CCCCC(=O)*)N1",
  "data": [
    {"binder": "B1", "values": [
      {"measurement": "EC50", "setting": "GDF-7 [1]", "result": "> 100", "unit": "nM"}
    ]},
    {"binder": "B2", "values": [
      {"measurement": "binding result", "setting": "PDGF-BB", "result": "no binding (tested: growth factor 0.01 nM to 100 nM)"},
      {"measurement": "binding result", "setting": "TGF-β3", "result": "no binding (tested: growth factor 0.01 nM to 100 nM)"},
      {"measurement": "binding result", "setting": "TGF-β1", "result": "no binding (tested: growth factor 0.01 nM to 100 nM)"},
      {"measurement": "EC50", "setting": "GDF-7 [2]", "result": "< 1", "unit": "nM"},
      {"measurement": "EC50", "setting": "BMP-5", "result": "< 100", "unit": "nM"},
      {"measurement": "EC50", "setting": "BMP-2", "result": "< 10", "unit": "nM"},
      {"measurement": "EC50", "setting": "BMP-6", "result": "< 10", "unit": "nM"},
      {"measurement": "EC50", "setting": "GDF-5", "result": "< 10", "unit": "nM"}
    ]},
    {"binder": "[code s][code s]GPREIWDSLVGVVNPGW[code s][code r] (also: biotinylated, site not given here)", "note": "[SEQ ID NO 1]", "values": [
      {"measurement": "binding result", "setting": "PDGF-BB", "result": "no binding (tested: growth factor 0.01 nM to 100 nM)"},
      {"measurement": "binding result", "setting": "TGF-β3", "result": "no binding (tested: growth factor 0.01 nM to 100 nM)"},
      {"measurement": "binding result", "setting": "TGF-β1", "result": "no binding (tested: growth factor 0.01 nM to 100 nM)"},
      {"measurement": "EC50", "setting": "GDF-7 [2]", "result": "< 1", "unit": "nM"},
      {"measurement": "EC50", "setting": "BMP-5", "result": "< 100", "unit": "nM"},
      {"measurement": "EC50", "setting": "BMP-2", "result": "< 10", "unit": "nM"},
      {"measurement": "EC50", "setting": "BMP-6", "result": "< 10", "unit": "nM"},
      {"measurement": "EC50", "setting": "GDF-5", "result": "< 10", "unit": "nM"}
    ]},
    {"binder": "[code s][code s]VAEWALRSWEGMRVGEA[code s][code r] (also: biotinylated, site not given here)", "note": "[SEQ ID NO 3]", "values": [
      {"measurement": "binding result", "setting": "PDGF-BB", "result": "no binding (tested: growth factor 0.01 nM to 100 nM)"},
      {"measurement": "binding result", "setting": "TGF-β3", "result": "no binding (tested: growth factor 0.01 nM to 100 nM)"},
      {"measurement": "binding result", "setting": "TGF-β1", "result": "no binding (tested: growth factor 0.01 nM to 100 nM)"},
      {"measurement": "EC50", "setting": "GDF-7 [2]", "result": "< 1", "unit": "nM"},
      {"measurement": "EC50", "setting": "BMP-5", "result": "< 100", "unit": "nM"},
      {"measurement": "EC50", "setting": "BMP-2", "result": "< 10", "unit": "nM"},
      {"measurement": "EC50", "setting": "BMP-6", "result": "< 10", "unit": "nM"},
      {"measurement": "EC50", "setting": "GDF-5", "result": "< 10", "unit": "nM"}
    ]}
  ]
}
